Results taken from publication PMC4072508, “Genome-Wide Prediction and Validation of Peptides That Bind Human Prosurvival Bcl-2 Proteins” (PLoS Computational Biology, 2014).
Read-outs that look alike come from different tables or passages of the source.

Tests used:
Mcl-1 [1] = target: T1, Mcl-1 (Homo sapiens, UniProt Q07820); settings: cited from earlier work
T1 construct: myc-Mcl-1 SPOT array & FP; made in house
Source text: Negative control mutatio ...

Mcl-1 [2] = target: T1, Mcl-1; test: LUMIER full-length protein interaction; type: binding; settings: LUMIER results for Mcl-1, Z-score relative to Gaussian fit of the data; for z-score 1.2: experiment 1, duplicate 2; for z-score 2.1: experiment 2, duplicate 1; for z-score 2.2: experiment 2, duplicate 2
Method: (§1) The LUMIER assay was carried out as previously described with the following modifications. A stable cell line expressing receptor tagged on the N-terminus with Nanoluc luciferase was created (the prey). […] Each bait construct was transfected into the receptor-luciferase cells in a 96-well format and after 48 hours the cells were lysed and transferred to 384-well plates coated with anti-FLAG. After incubation and washing, luminescence was measured to quantify how much receptor-luciferase was captured by the bait protein. Anti-Flag ELISA signal was used to exclude bait proteins that were not expressed. The experiment was carried out two times, each in duplicate.

Bcl-xL = target: T2, Bcl-xL (Homo sapiens, UniProt Q07817); test: LUMIER full-length protein interaction; type: binding; settings: LUMIER results for Bcl-xL, Z-score relative to Gaussian fit of the data; for z-score 1.1: experiment 1, duplicate 1; for z-score 1.2: experiment 1, duplicate 2; for z-score 2.1: experiment 2, duplicate 1; for z-score 2.2: experiment 2, duplicate 2
T2 construct: myc-Bcl-xL SPOT array & FP; made in house
Method: as §1

[3] = read-out: Binder class, Mcl-1, natural BH3 peptides, interactions taken from literature
[4] = read-out: KD, Mcl-1, previously reported
[5] = read-out: Binder class, Mcl-1, S1 Bim variants, specific binding measured using yeast display, ref Dutta et al. (2010)
[6] = read-out: Binder class, Mcl-1, S2 Bim variants, ref Dutta et al. (2013)

T1 sequence (Q07820 with tags, fused parts or gaps): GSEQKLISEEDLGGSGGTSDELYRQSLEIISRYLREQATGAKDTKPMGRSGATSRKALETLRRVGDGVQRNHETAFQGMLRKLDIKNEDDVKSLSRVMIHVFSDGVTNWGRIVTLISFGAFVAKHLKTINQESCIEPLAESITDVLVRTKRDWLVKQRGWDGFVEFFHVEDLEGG
T2 sequence (Q07817 with tags, fused parts or gaps): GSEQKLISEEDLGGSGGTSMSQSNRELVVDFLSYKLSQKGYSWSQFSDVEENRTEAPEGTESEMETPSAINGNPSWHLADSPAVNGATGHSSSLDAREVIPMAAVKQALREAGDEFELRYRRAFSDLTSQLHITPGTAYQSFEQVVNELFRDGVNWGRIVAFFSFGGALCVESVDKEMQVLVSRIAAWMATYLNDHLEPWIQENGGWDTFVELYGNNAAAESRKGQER

Substance: AAQRYGRELRRMSDEFVDSFKKG (LWAAQRYGRELRRMSDEFVDSFKKGL) [Bad]
- Kd (Mcl-1 [1]; [3]): < 1 µM
- Kd (Mcl-1 [1]; [4]): > 2.5 µM

Substance: PEIWVAQEFKRYGDETNAYYARR
- Kd (Mcl-1 [1]; [5]): > 10 µM

Substance: PEIWDAQELGRIGDEVNAYYARR
- Kd (Mcl-1 [1]; [5]): < 1 µM

Substance: EGEKEVEALKKSADWVSDWSSRP (VVEGEKEVEALKKSADWVSDWSSRPE) [BNIP3L]
- Kd (Mcl-1 [1]; [3]): > 10 µM
- Kd (Mcl-1 [1]; [4]): > 2.5 µM

Substance: PEIWFAQEIERIGDEVNAYYARR
- Kd (Mcl-1 [1]; [5]): < 1 µM

Substance: PEIWIAQELRRAGDVLNAYYARR
- Kd (Mcl-1 [1]; [6]): < 1 µM

Substance: PEIWFAQEVGRIGDEINAYYARR
- Kd (Mcl-1 [1]; [5]): < 1 µM

Substance: PEIWFAQELRRDGDEFNAYYARR
- Kd (Mcl-1 [1]; [5]): > 10 µM

Substance: PEIWVAQEFRRAGDEFNAYYARR
- Kd (Mcl-1 [1]; [5]): > 10 µM

Substance: PEIWIAQEINRVGDEINAYYARR
- Kd (Mcl-1 [1]; [5]): < 1 µM

Substance: PEIWIAQEVDRIGDEVNAYYARR
- Kd (Mcl-1 [1]; [5]): < 1 µM

Substance: PEIWFAQELKRFGDEANAYYARR
- Kd (Mcl-1 [1]; [5]): > 10 µM

Substance: PEIWFAQEARRYGDEFNAYYARR
- Kd (Mcl-1 [1]; [5]): > 10 µM

Substance: PEIWVAQEFQRAGDEYNAYYARR
- Kd (Mcl-1 [1]; [5]): > 10 µM

Substance: PEIWVAQEFQRNGDEFNAYYARR
- Kd (Mcl-1 [1]; [5]): > 10 µM

Substance: PEIWMAQVLRRFGDLLNAYYARR
- Kd (Mcl-1 [1]; [6]): < 1 µM

Substance: MTQEVGQLLQDMGDDVYQQYRSL (GVMTQEVGQLLQDMGDDVYQQYRSLT) [Mule]
- Kd (Mcl-1 [1]; [3]): > 10 µM

Substance: IIRNIARHLAQVGDSMDRSIPPG (EDIIRNIARHLAQVGDSMDRSIPPGL) [Bid]
- Kd (Mcl-1 [1]; [3]): < 1 µM

Substance: PEIWFAQELSRNGDEFNAYYARR
- Kd (Mcl-1 [1]; [5]): > 10 µM

Substance: PEIWFAQEFSRIGDEVNAYYARR
- Kd (Mcl-1 [1]; [5]): < 1 µM

Substance: PEIWLAQYLRRLGDQINAYYARR
- Kd (Mcl-1 [1]; [6]): < 1 µM

Substance: LEVECATQLRRFGDKLNFRQKLL (AELEVECATQLRRFGDKLNFRQKLLN) [Noxa]
- Kd (Mcl-1 [1]; [3]): > 10 µM

Substance: PEIWIAQEFQRAGDEYNAYYARR
- Kd (Mcl-1 [1]; [5]): > 10 µM

Substance: PEIWVAQEFKRFGDEYNAYYARR
- Kd (Mcl-1 [1]; [5]): > 10 µM

Substance: AAQLTAARLKALGDELHQRTMWR [Hrk]
- Kd (Mcl-1 [1]; [3]): > 10 µM

Substance: PEIWFAQEIRRDGDEFNAYYARR
- Kd (Mcl-1 [1]; [5]): > 10 µM

Substance: PEIWIAQEFQRNGDEYNAYYARR
- Kd (Mcl-1 [1]; [5]): > 10 µM

Substance: TTC31 (DLSSTFVSLALRKVGDWPLSARREKG)
- z-score 1.2 (Mcl-1 [2]): -0.2499
- z-score 2.1 (Mcl-1 [2]): -0.5416
- z-score 2.2 (Mcl-1 [2]): -0.2181
- z-score 1.1 (Bcl-xL): 0.5842
- z-score 1.2 (Bcl-xL): 0.512
- z-score 2.1 (Bcl-xL): 0.1189
- z-score 2.2 (Bcl-xL): 0.4568

Substance: FUT8 (KKLKNLEGNELQRHADEFLLDLGHHE)
- z-score 1.2 (Mcl-1 [2]): -0.4768
- z-score 2.1 (Mcl-1 [2]): -0.1664
- z-score 2.2 (Mcl-1 [2]): -0.7985
- z-score 1.1 (Bcl-xL): -1.728
- z-score 1.2 (Bcl-xL): -2.609
- z-score 2.1 (Bcl-xL): 2.234
- z-score 2.2 (Bcl-xL): -0.644

Substance: PEIWAAQEIRRIGDESNAYYARR
- Kd (Mcl-1 [1]; [5]): < 1 µM

Substance: NOL8 (KYDPSKYCHNLKKIGEDFSNTIPISS)
- z-score 1.2 (Mcl-1 [2]): 0.3257
- z-score 2.1 (Mcl-1 [2]): 2.02
- z-score 2.2 (Mcl-1 [2]): 1.79
- z-score 1.1 (Bcl-xL): 1.001
- z-score 1.2 (Bcl-xL): -1.268
- z-score 2.1 (Bcl-xL): 4.4
- z-score 2.2 (Bcl-xL): 3.656

Substance: PEIWFAQEIDRIGDEVNAYYARR
- Kd (Mcl-1 [1]; [5]): < 1 µM

Substance: TAP1 (MSILTIASAVLEFVGDGIYNNTMGHV)
- z-score 1.2 (Mcl-1 [2]): -0.7174
- z-score 2.1 (Mcl-1 [2]): 0.2302
- z-score 2.2 (Mcl-1 [2]): -0.2533
- z-score 1.1 (Bcl-xL): 3.909
- z-score 1.2 (Bcl-xL): -0.1665
- z-score 2.1 (Bcl-xL): 0.7598
- z-score 2.2 (Bcl-xL): -0.2

Substance: CYP2A6 (MPYMEAVIHEIQRFGDVIPMSLARRV)
- z-score 1.2 (Mcl-1 [2]): -0.6263
- z-score 2.1 (Mcl-1 [2]): -0.8736
- z-score 2.2 (Mcl-1 [2]): -1.0005
- z-score 1.1 (Bcl-xL): -0.01422
- z-score 1.2 (Bcl-xL): -0.04633
- z-score 2.1 (Bcl-xL): -0.5606
- z-score 2.2 (Bcl-xL): -0.592

Substance: PEIWIAQGLRRIGDTWNAYYARR
- Kd (Mcl-1 [1]; [6]): < 1 µM
